Experiment [1] has as its target T1, native Nodal protein in LCP, A375 and WM266 melanoma cells (Homo sapiens, UniProt Q96S42).
T1 construct: recognize the endogenous forms of Nodal protein in human melanoma cells; endogenous in cells; host or cells: human melanoma lines PES, A-375, SK-MEL, WM 266, LCM (blot); LCP, A375, WM266 (FACS)
T1 sequence (Q96S42 238-347): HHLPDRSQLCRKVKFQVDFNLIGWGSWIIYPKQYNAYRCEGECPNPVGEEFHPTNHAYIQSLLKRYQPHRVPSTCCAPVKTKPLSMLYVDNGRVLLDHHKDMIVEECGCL
Put plainly: FACS staining of Nodal in fixed and permeabilized human melanoma cell lines with 3D1. It counts as binding. The conditions noted are these: 0.1-2.0 μg/mL, dose-dependent. The procedure: LCP, A375 and WM266 melanoma cells were collected by centrifugation. After aspiration of supernatant, the cells were resuspended in 500 μL of PBS and formaldehyde was added to obtain a final concentration of 4%. Cells were fixed for 10 min at room temperature. After fixation, cells were permeabilized by adding 500 μL of PBS-Tween 20. 1×10^6 cells were aliquoted into each vial; 1 mL of PBS (incubation buffer) was added to each vial and cells were washed by centrifugation at 4000 rpm for 5 min at 4° C. Cells were resuspended in 100 μL of solution of 3D1 anti-Nodal antibody (primary antibody), diluted in PBS at the following concentrations: 0.1, 0.5, 1.0 and 2.0 μg/mL. A standard IgG1 isotype was used as negative control. Cells were incubated with the primary antibody for 1 h at 4° C. under shaking. After incubation, cells were washed by centrifugation in 1 mL of PBS, resuspended and incubated with a FITC-conjugated anti-mouse antibody (secondary antibody), diluted 1:1000 (1.0 μg/mL) in PBS, for 40 min at 4° C. in the dark under stirring. Cells were washed by centrifugation with 1 mL of incubation buffer, re-suspended in […] and analyzed on flow cytometer. Fluorescence was evaluated using the BD FACScalibur System.

The target in experiment [2] is T2, rhNodal/rhCripto-1 complex (Homo sapiens, UniProt Q96S42).
T2 construct: E. coli derived His238 Leu347, with an N-terminal Met; purchased R&D Systems
T2 sequence (Q96S42 238-347): T1 sequence (Q96S42 238-347)
Put plainly: SPR competition assay: rhNodal pre-incubated with 3D1 injected over Cripto-1-derivatized chip. Format: binding. The procedure:
Next, experiments were conducted to assess the ability of 3D1 antibodies to inhibit binding between Nodal and Cripto-1 through SPR experiments. Experiments were performed on CM5 sensor chips with immobilized Cripto-1.
The antibody at 1:1 molar ratio prevents the binding of hNodal to hCripto-1-1 by about 70%. Accordingly, the invention provides that, in one embodiment, 3D1 can be used to prevent binding between Cripto-1 and Nodal (e.g., for therapeutic uses described herein (e.g., to inhibit and/or neutralize Cripto-1-mediated Nodal signaling)).
Competition assays. Competition assays were performed using Biacore sensor chips derivatized with rhCripto-1-1. The binding between immobilized rhCripto-1-1 and rhNodal was assessed by injecting solutions of the Nodal protein at increasing concentrations. rhNodal was incubated at 5 nM with 3D1 mAb at concentrations matching 1:0.5, 1:1 and 1:2 molar ratios (protein:mAb).
SPR analyses were performed at 25° C. using HBS as running buffer. Protein immobilization was carried out following the canonical amine coupling chemistry using the surface immobilization wizard procedure, operating at 5 μL/min. […] Dissociations were monitored for at least 3 additional minutes. […]

B1: 3D1: mouse monoclonal anti-Nodal antibody raised against hNodal(44-67); light chain SEQ ID NO:1, heavy chains SEQ ID NO:2 and 3 (protein)
light: DIKMTQSPASLSASVGETVTITCRASGNIHNYLAWYQQKQGKSPQLLVYNAKTLADGVPSRFSGSGSGTQYSLKINSLQPEDFGSYYCQHFWSTPHVRCWDQAGTETEAW
heavy 1: VKLVESGGGLVKPGGSLKLSCAASGFTFSSYAMSWVRQTPEKRLEWVASISSGGCTYYPDSVKGRFTISRDNARNILYLQMSSLRSEDTAMYYCARGSMITADGNSLLLCYGLLGSRNLXHR
heavy 2: VKLVESGGGLVQPGGSMKLSCVASGFTFRNYWMSWVRQSPEKGLEWVAEIRLKSDNYAARYAESVKGKFTISRDDSKSRLYLQMNSLRAEDTGIYYCTGIRRFAYWGQGTL
modifications: not fully specified; (120)..(120) Xaa can be any naturally occurring amino acid
On to B1, for which the “binding to native Nodal protein in cells (FACS)” value in experiment [1] is on record as “bound native Nodal protein also in intact cells at very low concentrations”. Besides, the “inhibition of the binding of Nodal to Cripto-1” value in experiment [2] (3D1 mAb at 5 nM (1:1 molar ratio), rhNodal 5 nM) is given as “approximately 70%”. For the same molecule, in experiment [2] (antibody at 1:1 molar ratio, 5 nM Nodal), the “prevention of binding of hNodal to hCripto-1” value is recorded as “about 70%”.

The values above are taken from US10508147B2, “Anti-nodal antibodies and methods of using same” (ANN AND ROBERT H. LURIE CHILDREN'S HOSPITAL OF CHICAGO, priority 2014, dated 2019).
